Laboratory results reported in FireProtDB (doi:10.1021/bi048182n).
Values joined by “and” are separate entries in the source; they are usually repeats but may differ in a detail not shown here. Equal values may be shown once.

Settings: Bos taurus, pH 8.4, 23 °C, GdnHCl, HPLC, Tris-HCl 0.1 M, reversible: yes, whole UniProt chain shown

B1: Alpha-lactalbumin wild type, P00711 (protein)
chain: MMSFVSLLLVGILFHATQAEQLTKCEVFRELKDLKGYGGVSLPEWVCTTFHTSGYDTQAIVQNNDSTEYGLFQINNKIWCKDDQNPHSSNICNISCDKFLDDDLTDDIMCVKKILDKVGINYWLAHKALCSEKLDQWLCEKL
Q: Which denaturant m value (CaCl2 5 mM) does the source give for B1 here?
A: 2.1 kcal/mol/M and 2.4 kcal/mol/M

Q: What about the “denaturant midpoint (higher = more stable)” value (CaCl2 5 mM) of the same protein?
A: 2.15 M and 1.4 M

Q: What about the unfolding free energy (CaCl2 5 mM) of the same protein?
A: 4.52 kcal/mol and 3.36 kcal/mol

Q: And the denaturant m value?
A: 2.3 kcal/mol/M and 3.4 kcal/mol/M

Q: What about the “denaturant midpoint (higher = more stable)” value of the same protein?
A: 1.1 M and 0.4 M

Q: What about the unfolding free energy of the same protein?
A: 2.53 kcal/mol and 1.36 kcal/mol
